We go through nine substances from article PMC6755812.

In data set [1] the target is bovine pancreas insulin (bovine).
The target in data set [2] is Escherichia coli thioredoxin reductase (E. coli) (UniProt P0A9P4).
For data set [3], the target named is Escherichia coli peptide methionine sulfoxide reductase A (E. coli) (UniProt P0A744).
Another data set deals with Cys32 (UniProt position 33, FWAEWCGPCKM). The conditions noted are these: reduced (dithiol) form implied; not stated explicitly; cited from earlier work.

Escherichia coli thioredoxin reductase (E. coli), sequence (P0A9P4 2-321): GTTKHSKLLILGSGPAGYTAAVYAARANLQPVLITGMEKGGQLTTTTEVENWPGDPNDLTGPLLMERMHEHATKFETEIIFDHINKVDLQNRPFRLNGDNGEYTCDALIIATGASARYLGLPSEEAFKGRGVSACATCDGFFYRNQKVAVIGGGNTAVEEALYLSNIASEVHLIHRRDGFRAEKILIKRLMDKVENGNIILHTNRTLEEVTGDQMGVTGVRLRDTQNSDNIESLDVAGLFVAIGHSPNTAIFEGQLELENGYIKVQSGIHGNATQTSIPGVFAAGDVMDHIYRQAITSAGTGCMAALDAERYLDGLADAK
Escherichia coli peptide methionine sulfoxide reductase A (E. coli), sequence (P0A744 2-212): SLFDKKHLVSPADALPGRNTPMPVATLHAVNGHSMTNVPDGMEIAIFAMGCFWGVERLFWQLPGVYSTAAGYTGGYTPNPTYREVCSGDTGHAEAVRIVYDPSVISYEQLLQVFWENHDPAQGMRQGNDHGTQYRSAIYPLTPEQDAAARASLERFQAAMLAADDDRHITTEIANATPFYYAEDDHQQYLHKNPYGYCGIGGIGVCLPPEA
Escherichia coli thioredoxin, sequence (P0AA25 2-109): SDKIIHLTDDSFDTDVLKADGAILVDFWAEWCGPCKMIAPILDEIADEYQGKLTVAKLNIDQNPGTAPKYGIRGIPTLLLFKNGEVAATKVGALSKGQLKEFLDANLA

“Archaeal–Eukaryotic Common Ancestor thioredoxin (enzyme)” registered a Specific insulin reductase activity (0.13 mM insulin, 1 mM DTT, 0.5-2.0 μM Trx, onset of aggregation at OD650, pH 7.0, 25 °C) in data set [1] of 0.0452 min^−1 μM^−1. For the same substance, in data set [2], the Catalytic activity of S-MetO reduction by NADPH (Vi/[Trx]) in the reconstituted NADPH/TrxR/Trx/MsrA chain (4.5 μM TrxR, 4.5 μM MsrA, 0.1-1.0 μM Trx, pH 7.0, 25 °C) came out at 14.6 min^−1 and the kcat/Km: activity as substrate of TrxR (ecTrxR-catalysed reduction of Trx by NADPH, DTNB-coupled, 0.04 μM TrxR, 0.1-300 μM Trx, pH 7.0, 25 °C) turned out to be 130000 M^−1 s^−1. In addition, in data set [3], the k1: rate constant of Trx–MsrA mixed disulfide formation (stopped-flow fluorescence, 1 μM oxidized MsrA, 5-100 μM reduced Trx, pH 7.0, 25 °C) stood at 716000 M^−1 s^−1; the k2: rate constant of mixed disulfide dissociation to reduced MsrA and oxidized Trx (stopped-flow fluorescence, pH 7.0, 25 °C) worked out at 1.75 s^−1.
For “Escherichia coli thioredoxin (from UniProt P0AA25 2-109) (enzyme)” the same measures were 0.0512 min^−1 μM^−1, 66.9 min^−1, 8.81e+06 M^−1 s^−1, 1.01e+06 M^−1 s^−1 and 2.89 s^−1.
With “Last Animalia and Fungi Common Ancestor thioredoxin (enzyme)”, the Specific insulin reductase activity (0.13 mM insulin, 1 mM DTT, 0.5-2.0 μM Trx, onset of aggregation at OD650, pH 7.0, 25 °C) in data set [1] is 0.0224 min^−1 μM^−1. In data set [3], this substance returned a k1: rate constant of Trx–MsrA mixed disulfide formation (stopped-flow fluorescence, 1 μM oxidized MsrA, 5-100 μM reduced Trx, pH 7.0, 25 °C) of 45000 M^−1 s^−1; a k2: rate constant of mixed disulfide dissociation to reduced MsrA and oxidized Trx (stopped-flow fluorescence, pH 7.0, 25 °C) of 3.47 s^−1.
Turning to “Last Archaeal Common Ancestor thioredoxin (enzyme)”, in data set [1], the Specific insulin reductase activity (0.13 mM insulin, 1 mM DTT, 0.5-2.0 μM Trx, onset of aggregation at OD650, pH 7.0, 25 °C) was 0.0532 min^−1 μM^−1. For the same substance, in data set [2], the Catalytic activity of S-MetO reduction by NADPH (Vi/[Trx]) in the reconstituted NADPH/TrxR/Trx/MsrA chain (4.5 μM TrxR, 4.5 μM MsrA, 0.1-1.0 μM Trx, pH 7.0, 25 °C) was 9.13 min^−1 and the kcat/Km: activity as substrate of TrxR (ecTrxR-catalysed reduction of Trx by NADPH, DTNB-coupled, 0.04 μM TrxR, 0.1-300 μM Trx, pH 7.0, 25 °C) turned out to be 118000 M^−1 s^−1. In data set [3], this substance registered a k1: rate constant of Trx–MsrA mixed disulfide formation (stopped-flow fluorescence, 1 μM oxidized MsrA, 5-100 μM reduced Trx, pH 7.0, 25 °C) of 518000 M^−1 s^−1; a k2: rate constant of mixed disulfide dissociation to reduced MsrA and oxidized Trx (stopped-flow fluorescence, pH 7.0, 25 °C) of 1.54 s^−1.
In the case of “Last Bacterial Common Ancestor thioredoxin (enzyme)”, the Specific insulin reductase activity (0.13 mM insulin, 1 mM DTT, 0.5-2.0 μM Trx, onset of aggregation at OD650, pH 7.0, 25 °C) in data set [1] was determined as 0.0781 min^−1 μM^−1. Also, in data set [2], the Catalytic activity of S-MetO reduction by NADPH (Vi/[Trx]) in the reconstituted NADPH/TrxR/Trx/MsrA chain (4.5 μM TrxR, 4.5 μM MsrA, 0.1-1.0 μM Trx, pH 7.0, 25 °C) is 11.7 min^−1 and the kcat/Km: activity as substrate of TrxR (ecTrxR-catalysed reduction of Trx by NADPH, DTNB-coupled, 0.04 μM TrxR, 0.1-300 μM Trx, pH 7.0, 25 °C) turned out to be 117000 M^−1 s^−1. In data set [3], this substance showed a k1: rate constant of Trx–MsrA mixed disulfide formation (stopped-flow fluorescence, 1 μM oxidized MsrA, 5-100 μM reduced Trx, pH 7.0, 25 °C) of 498000 M^−1 s^−1; a k2: rate constant of mixed disulfide dissociation to reduced MsrA and oxidized Trx (stopped-flow fluorescence, pH 7.0, 25 °C) of 2.69 s^−1.
On to “Last Common Ancestor of the Cyanobacterial, Deinococcus, and Thermus group thioredoxin (enzyme)”, for which the Specific insulin reductase activity (0.13 mM insulin, 1 mM DTT, 0.5-2.0 μM Trx, onset of aggregation at OD650, pH 7.0, 25 °C) in data set [1] stood at 0.104 min^−1 μM^−1. In data set [2], the Catalytic activity of S-MetO reduction by NADPH (Vi/[Trx]) in the reconstituted NADPH/TrxR/Trx/MsrA chain (4.5 μM TrxR, 4.5 μM MsrA, 0.1-1.0 μM Trx, pH 7.0, 25 °C) was 36.9 min^−1 and the kcat/Km: activity as substrate of TrxR (ecTrxR-catalysed reduction of Trx by NADPH, DTNB-coupled, 0.04 μM TrxR, 0.1-300 μM Trx, pH 7.0, 25 °C) was 7.6e+06 M^−1 s^−1. In data set [3], this substance showed a k1: rate constant of Trx–MsrA mixed disulfide formation (stopped-flow fluorescence, 1 μM oxidized MsrA, 5-100 μM reduced Trx, pH 7.0, 25 °C) of 436000 M^−1 s^−1; a k2: rate constant of mixed disulfide dissociation to reduced MsrA and oxidized Trx (stopped-flow fluorescence, pH 7.0, 25 °C) of 2.93 s^−1.
In the case of “Last Eukaryotic Common Ancestor thioredoxin (enzyme)”, the Specific insulin reductase activity (0.13 mM insulin, 1 mM DTT, 0.5-2.0 μM Trx, onset of aggregation at OD650, pH 7.0, 25 °C) in data set [1] came out at 0.0738 min^−1 μM^−1. The substance also showed a Catalytic activity of S-MetO reduction by NADPH (Vi/[Trx]) in the reconstituted NADPH/TrxR/Trx/MsrA chain (4.5 μM TrxR, 4.5 μM MsrA, 0.1-1.0 μM Trx, pH 7.0, 25 °C) in data set [2] of 0.29 min^−1. Besides, in data set [3], the k1: rate constant of Trx–MsrA mixed disulfide formation (stopped-flow fluorescence, 1 μM oxidized MsrA, 5-100 μM reduced Trx, pH 7.0, 25 °C) was 40700 M^−1 s^−1; the k2: rate constant of mixed disulfide dissociation to reduced MsrA and oxidized Trx (stopped-flow fluorescence, pH 7.0, 25 °C) came out at 3.51 s^−1.
Substance “Last γ-Proteobacteria Common Ancestor thioredoxin (enzyme)” returned a Specific insulin reductase activity (0.13 mM insulin, 1 mM DTT, 0.5-2.0 μM Trx, onset of aggregation at OD650, pH 7.0, 25 °C) in data set [1] of 0.0645 min^−1 μM^−1. In data set [2], the Catalytic activity of S-MetO reduction by NADPH (Vi/[Trx]) in the reconstituted NADPH/TrxR/Trx/MsrA chain (4.5 μM TrxR, 4.5 μM MsrA, 0.1-1.0 μM Trx, pH 7.0, 25 °C) was determined as 25.8 min^−1 and the kcat/Km: activity as substrate of TrxR (ecTrxR-catalysed reduction of Trx by NADPH, DTNB-coupled, 0.04 μM TrxR, 0.1-300 μM Trx, pH 7.0, 25 °C) was 718000 M^−1 s^−1. In addition, in data set [3], the k1: rate constant of Trx–MsrA mixed disulfide formation (stopped-flow fluorescence, 1 μM oxidized MsrA, 5-100 μM reduced Trx, pH 7.0, 25 °C) turned out to be 369000 M^−1 s^−1; the k2: rate constant of mixed disulfide dissociation to reduced MsrA and oxidized Trx (stopped-flow fluorescence, pH 7.0, 25 °C) was 1.65 s^−1.
“Thioredoxin 1 (ecTrx) (Escherichia coli)”: the pKa in the data set with Cys32 is listed as 7.1.

Broadly, the pKa is the pH at which an ionisable group is half protonated.
